# Reference: article PMC12820532 (Nucleic Acids Research, 2026)
# Target: His-REV7 (human, UniProt Q9UI95 1-211)
# Experiment: pull-down
# His-REV7, sequence (Q9UI95 whole entry): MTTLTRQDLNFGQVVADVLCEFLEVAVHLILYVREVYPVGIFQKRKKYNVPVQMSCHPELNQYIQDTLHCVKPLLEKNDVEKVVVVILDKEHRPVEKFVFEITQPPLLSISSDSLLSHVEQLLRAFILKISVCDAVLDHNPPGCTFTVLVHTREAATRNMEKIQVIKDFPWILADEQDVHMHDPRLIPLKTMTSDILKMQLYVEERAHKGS
row,Binder,binding result
1,GST-ATRIP 203–348 (domain or fragment) RTKLQTSERANKLAAPSVSHVSPRKNPSVVIKPEACSPQFGKTSFPTKESFSANMSLPHPCQTESGYKPLVGREDSKPHSLRGDSIKQEEAQKSFVDSWRQRSNTQGSILINLLLKQPLIPGSSLSLCHLLSSSSESPAGTPLQPP,binds
2,GST-ATRIP 203–307 (WT) (domain or fragment) RTKLQTSERANKLAAPSVSHVSPRKNPSVVIKPEACSPQFGKTSFPTKESFSANMSLPHPCQTESGYKPLVGREDSKPHSLRGDSIKQEEAQKSFVDSWRQRSNT,binds
